Residue numbers refer to the chain shown, from its start. Each block holds one binder with its values, some of them ahead of it.
Target: T1, TM4SF5 (transmembrane 4 L six family member 5) 단백질 (human, UniProt O14894 1-197)
T1 sequence (looked up): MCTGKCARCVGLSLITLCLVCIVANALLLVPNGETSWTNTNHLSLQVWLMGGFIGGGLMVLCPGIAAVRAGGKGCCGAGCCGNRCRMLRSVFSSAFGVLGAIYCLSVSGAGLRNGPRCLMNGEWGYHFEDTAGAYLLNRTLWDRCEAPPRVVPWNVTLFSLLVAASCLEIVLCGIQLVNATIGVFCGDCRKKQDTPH
Assay: cell-based or functional assay

- 간암세포주의 침윤 억제 (Transwell assay, Tp 세포, 항체 20㎍/㎖, 48시간): 56%
B1: 항-TM4SF5 항체 #27 (scFv-Fc) (Fc fusion)
VH: QVQLQQFGAELVRPGASVTLSCKASGYTFTDYEMHWVKQTPVHGLEWIGAIDPETGGTAYNQKFKGKAILTADKSSSTAYMELRSLTSEDSAVYYCTRPYLGYWGQGTTVTVSS
VL: DAVVTQTPLSLPVSLGDQASISCRSSQSLVHSNGNTYLHWYLQKPGQSPKLLIYKVSNRFSGVPDRFSGSGSGTDFTLKISRVEAEDLGVYYCFQGSHIPLTFGAGTKLELK

- 간암세포주의 침윤 억제 (Transwell assay, Tp 세포, 항체 20㎍/㎖, 48시간): 49%
B2: 항-TM4SF5 항체 #79 (scFv-Fc) (Fc fusion)
VH: B1 VH with Q1G, F7S, T19K, R98V, P99Y, Y100G, G102A, T109L, S114A
VL: B1 VL with A2V, V4M, Y92F, F94S, G96N, S97T, I99V, L101Y, A105G

- 간암세포주의 침윤 억제 (Transwell assay, Tp 세포, 항체 20㎍/㎖, 48시간): 83%
B3: 항-TM4SF5 항체 #1 (scFv-Fc) (Fc fusion)
VH: EVQLQQFGAELVRPGASVTLSCKASGYTFTDYEMHWVKQTPVHGLEWIGAIDPETGGTAYNQKFKGKAILTADKSSSTAYMELRSLTSEDSAVYFCARLTLFYGNYDWPFDVWGTGTSVTVSS
VL: DIVMTQSQKFMSTSVGDRVSITCKASQNVRTAVAWYQQKPGQSPKLLIYWASTRHTGVPDRFTGSGSGTDFTLTISNVQSEDLADYFCQQYSSYPFTFGSGTKLEIK

From patent KR20140018819A (dated 2014)
